From patent US12371675B2, “Process and microorganism for synthesis of adipic acid from carboxylic acids” (THE GOVERNING COUNCIL OF THE UNIVERSITY OF TORONTO, priority 2015, dated 2025)

Assays:
[1] = AT activity coupled with alanine and glutamate dehydrogenases; type: biochemical; settings: 10 mM adipaldehyde, alanine and glutamate amino-donors; ND = no activity was detected
[2] = Whole-cell biotransformation of muconic acid by E. coli expressing EREDs; type: cell-based; settings: 0.7 mM, 24-hr incubation
Procedure: After a 24-hr incubation, no muconic acid or 2-hexenedioic acid were detected in the culture, and a 99% yield of adipic acid was obtained (FIGS. 8a, 8b, and 8c). […] The 3-hexenedioic acid-like compound appears to be an inefficient substrate for these EREDS. This is similar to the mutated 2,4-dienoyl-CoA reductases from E. coli, which catalyze hydrogenation of 2,4-dienoyl CoA into 3-enoyl CoA (Tu, X., Hubbard, P. A., Kim, J. J. P. & Schulz, H. Two distinct proton donors at the active site of Escherichia coli 2,4-dienoyl-CoA reductase are responsible for the formation of different products. Biochemistry 47, 1167-1175 (2008).).

B1: SM2011_c04388: aminotransferase (AT) from Sinorhizobium meliloti (protein)
chain: MNAHNKPNAPVLDSYWMPFTANRQFKAAPRLLAAAEGMHYTSVDGRTVLDGTAGLWCVNAGHGRRQIAAAVERQLSTMDFAPSFQMGHPIAFDFAERLAEIAPGPAGAKLDRVFFTGSGSESVDTALKMALAYQRSIGQGTRTRLIGRERGYHGVGFGGISVGGIVNNRRVFPQLPGSDHLRHTHDPAKNAFVKGQPEHGAELADDLERLVALHGAETIAACIVEPVAGSTGVLIPPKGYLERLRAICDKHGILLIFDEVITGFGRLGAAFATDYFGVTPDIVTTAKGLTNGAIPMGAVFASRKVHDALMHGPEGQIELFHGYTYSGHPAACAAGIATLDIYRDEGLMTRAAEIEGDWHEAMHSMKGLPHVIDIRTIGLIAGIELQSRDGAPGARAYDVFVDCFERGLLIRVTGDIIAFSPPLIAEKQHFGEIVSILADALKRVK
**Q.** For B1, which “Adipaldehyde 10 mM U/mg” value [1] is on record?
**A.** 0.152 ± 0.001 U/mg

B2: gabT: aminotransferase (AT) from Escherichia coli (protein)
chain: MNSNKELMQRRSQAIPRGVGQIHPIFADRAENCRVWDVEGREYLDFAGGIAVLNTGHLHPKVVAAVEAQLKKLSHTCFQVLAYEPYLELCEIMNQKVPGDFAKKTLLVTTGSEAVENAVKIARAATKRSGTIAFSGAYHGRTHYTLALTGKVNPYSAGMGLMPGHVYRALYPCPLHGISEDDAIASIHRIFKNDAAPEDIAAIVIEPVQGEGGFYASSPAFMQRLRALCDEHGIMLIADEVQSGAGRTGTLFAMEQMGVAPDLTTFAKSIAGGFPLAGVTGRAEVMDAVAPGGLGGTYAGNPIACVAALEVLKVFEQENLLQKANDLGQKLKDGLLAIAEKHPEIGDVRGLGAMIAIELFEDGDHNKPDAKLTAEIVARARDKGLILLSCGPYYNVLRILVPLTIEDAQIRQGLEIISQCFDEAKQ
**Q.** With B2 as the molecule, how does the “Adipaldehyde 10 mM U/mg” value [1] read?
**A.** 0.337 ± 0.008 U/mg

B3: SM2011_c01534: aminotransferase (AT) from Sinorhizobium meliloti (protein)
chain: MSNRLNTTPNDLSAFWMPFTANRQFKKEPRLFVGAKDMYYTTHDGRTVLDGTAGLWCVNAGHCRPKITEAIREQAGELDYAPAFQLGHPKAFELANRLVDIAPEGMNHVLYTNSGSESVDTALKVALAYHRAKGNGSRFRLIGRERGYHGVNFGGISVGGIVANRKMFGTLLTGVDHLPHTHLPAKNAFSRGEPEHGADLAAELERIVTLHDASTVAAVIVEPVAGSTGVLIPPKGYLQKLREICTKHGILLIFDEVITGYGRLGTPFAAQYFDVKPDIITTAKGLTNGVIPMGAVFVTSEIHDAFMTGPEHLIEFFHGYTYSGNPIASAAALGTLDTYREEGLLTRAAELAPYWEEALHSLKDCPHVIDIRNIGLIGAVELEPIAGEPTKRAFSAFLKAYEKGLLIRTTGDIIALSPPLIIEKRQIDELFDKLRDVLKNNI
**Q.** With B3 as the molecule, how does the “Adipaldehyde 10 mM U/mg” value [1] read?
**A.** 0.021 ± 0.003 U/mg

B4: EREDCK: 2-enoate reductase (ERED) from Clostridium kluyveri DSM 555 (protein)
chain: MKNKSLFEPIKIGNMEVKNKIAMAPMGAFGLVDNECCFNQRAVDYYVERAKGGTGLIITSVVKVENELDKVLTGVLPITSINPAKFIMTSSEMTERVHAYGSKIFLQLSMGFGRSGAPGGLLTSQPVSASAVPNYWDPTVTCRELTTSEVEWIVEKFAEGAKIAHKAGFDGVEIHAVHEGYLLDQFTLSIFNRRTDKYGGDLRGRLQLPIEIVEAIKTEVGSNFPVGLRYSVKSCIKDWGQGGLAEEDYVEKGRDLEEGLEAAKILEAAGYDAFNADLGTYDAWYWAHPPLYQKDGLYLPYTKELKKVVKIPVMVAGKMGMPDVAEGALEDEAADMVTLGRPLLCDAYWPKKVFTGQIDRIRPCIGCHTGCMGRGFEGRPLSCTVNPAAGRERYYEVKPAAAPKKVMIVGGGVAGMEAARITAMRGHKVSMYEGTKELGGQVIPASVPDFKIDDRRLLDWYRNEMKELKVKLVLDTNVTEEVVEKEKPDVVIIATGAKEIKLNLPGIEKDKVATVIEVLKGSKQVGENVLMVGGGLAGCETALYLAKQGKKVTIIEARDTILNAGKPVPHMNKIMLIDLLKNSGVNIITETSLLEVTDRGAILIDNKFKKQNIDADTVVIAVGFKADRELYNKLRDKVADLYLVGDANESANIMNAIWSANEIALNC
**Q.** With B4 as the molecule, how does the “yield of adipic acid from trans,trans-muconic acid” value [2] read?
**A.** 99%

B5: Mll7127: aminotransferase (AT) from Rhizobium loti (protein)
chain: MLNQSNELNAWDRDHFFHPSTHMGTHARGESPTRIMAGGEGVTVWDNNGRKSIDAFAGLYCVNVGYGRQKIADAIATQAKNLAYYHAYVGHGTEASITLAKMIIDRAPKGMSRVYFGLSGSDANETNIKLIWYYNNVLGRPEKKKIISRWRGYHGSGVMTGSLTGLDLFHNAFDLPRAPVLHTEAPYYFRRTDRSMSEEQFSQHCADKLEEMILAEGPETIAAFIGEPILGTGGIVPPPAGYWEKIQAVLKKYDVLLVADEVVTGFGRLGTMFGSDHYGIKPDLITIAKGLTSAYAPLSGVIVADRVWQVLVQGSDKLGSLGHGWTYSAHPICVAAGVANLELIDEMDLVTNAGETGAYFRAELAKAVGGHKNVGEVRGDGMLAAVEFVADKDDRVFFDASQKIGPQVATALAASGVIGRAMPQGDILGFAPPLCLTREQADIVVSKTADAVKSVFANL
**Q.** Which “Adipaldehyde 10 mM U/mg” value [1] does the source give for B5 here?
**A.** 0.063 ± 0.001 U/mg

B6: SM2011_b20423: aminotransferase (AT) from Sinorhizobium meliloti (protein)
chain: MLERSNELTAWDRDHFFHPSTHMGMHARGETPTRVIGGGEGVYITDISGKRSLDAFAGLYCVNVGYGRQKIADAIAEQAKNLAYYHAYVGHGTEASIRLSKMIIDRAPEGMSRVYFGLSGSDANETNIKLIWYYNNILGRPEKKKIISRWRGYHGSGVMTGSLTGLHLFHNAFDLPRAPILHTEAPYYFRRPDRSMSEEQFSQYCADKLEEMILAEGPDTVAAFIGEPILGTGGIVPPPKGYWEKIQAVLQKYDILLVADEVVTGFGRLGTMFGSDHYGIKPDLITIAKGLTSAYAPLSGTIVSDKLWQVLVKGSDELGAIGHGWTYSAHPICAAAGIANLELIDELGIVENAGSTGAYFRAELQKAVGDHRHVGEVRGDGLMAAIEFVEDRDDRAFFDPGRKVGPQVAAALLERGVIGRAMPQGDILGFAPPLCLTRDEADIVVKAAADTIQSVLGR
**Q.** With B6 as the molecule, how does the “Adipaldehyde 10 mM U/mg” value [1] read?
**A.** 0.162 ± 0.002 U/mg

B7: Syrb2: aminotransferase (AT) from Pseudomonas syringae (protein)
chain: MSKKFALTAEQRASFEKNGFIGPFDAYSPEEMKETWKRTRLRLLDRSAAAYQDLDAISGGTNIANYDRHLDDDFLASHICRPEICDRVESILGPNVLCWRTEFFPKYPGDEGTDWHQADTFANASGKPQIIWPENEEFGGTITVWTAFTDANIANGCLQFIPGTQNSMNYDETKRMTYEPDANNSVVKDGVRRGFFGYDYRQLQIDENWKPDEASAVPMQMKAGQFIIFWSTLMHASYPHSGESQEMRMGFASRYVPSFVHVYPDSDHIEEYGGRISLEKYGAVQVIGDETPEYNRLVTHTTRGKKFEAV
**Q.** For B7, which “Adipaldehyde 10 mM U/mg” value [1] is on record?
**A.** 0.040 ± 0.001 U/mg

B8: Spo3471: aminotransferase (AT) from Ruegeria pomeroyi (protein)
chain: MATITNHMPTAELQALDAAHHLHPFSANNALGEEGTRVITRARGVWLNDSEGEEILDAMAGLWCVNIGYGRDELAEVAARQMRELPYYNTFFKTTHVPAIALAQKLAELAPGDLNHVFFAGGGSEANDTNIRMVRTYWQNKGQPEKTVIISRKNAYHGSTVASSALGGMAGMHAQSGLIPDVHHINQPNWWAEGGDMDPEEFGLARARELEEAILELGENRVAAFIAEPVQGAGGVIVAPDSYWPEIQRICDKYDILLIADEVICGFGRTGNWFGTQTMGIRPHIMTIAKGLSSGYAPIGGSIVCDEVAHVIGKDEFNHGYTYSGHPVAAAVALENLRILEEENILDHVRNVAAPYLKEKWEALTDHPLVGEAKIVGMMASIALTPNKASRAKFASEPGTIGYICRERCFANNLIMRHVGDRMIISPPLVITPAEIDEMFVRIRKSLDEAQAEIEKQGLMKSAA
**Q.** Which “Adipaldehyde 10 mM U/mg” value [1] does the source give for B8 here?
**A.** 0.021 ± 0.001 U/mg

B9: SM2011_b20379: aminotransferase (AT) from Sinorhizobium meliloti (protein)
chain: MNDRPNSLHALDKQSLVHPYTNLAVHQETGPHVITGGDGIYVVDDEGKRYIEGLAGLFCAGLGFSEQRLVEAATRQLKTMPFYHSFAHKSTEPGIRLAEKLLSIAPVPMSKVFFAGSGSEANDTAIKLIWYYNNALGRPEKKKIISRRKAYHGVTVATASLTGLPFNHRDFDLPIANILHTDCPHYWRFAETGETEEDFATRMANNLEAIILEEGPETIAAFFAEPVMVSGGVITPPKTYFEKVQAVLRKYDILLIADEVICGFGRTGNMFGSETYGLKPDMISCAKQLSAAYMPISALMINAKIADALVDQSRKIGTFSHGFTYGGHPVAAAVALEALTIYEEIDIVGHVRSVAPAFQDRVRKLGEHPLIGEARGVGLVAGLEFVKDKATRENFPPAWQVANQAGKFATARGVLTRGLGDMVSLCPAMIIDDEQIDDLMTRMGLALDDTLAWARAQGHVG
**Q.** For B9, which “Adipaldehyde 10 mM U/mg” value [1] is on record?
**A.** 0.106 ± 0.008 U/mg

B10: SM2011_b21186: aminotransferase (AT) from Sinorhizobium meliloti (protein)
chain: MTSLTDRKNAAISRGVGMTTQVYADRAENAEIWDKEGNRYIDFAAGIAVVNTGHRHPKVIAAVKAQLDRFTHTCHQVVPYENYVHLAERLNAIVPGDFAKKTIFVTTGAEAVENAVKIARAATGRQAVVAFGGGFHGRTFMGMALTGKVVPYKVGFGAMPADVFHAPFPIELHGVTVEQSLSALKKLFAADVDPARVAAIIIEPVQGEGGFYPVPTAFMKALREVCDQHGILLIADEVQTGFARTGKLFAMEHHGVAPDLTTMAKSLAGGFPLAAVTGRAEIMDAPGPGGLGGTYGGNPLGIAAAHAVLDVIAEENLCERANQLGNRLKQRLAAIREKAPEIVDIRGPGFMNAVEFNDVRTNLPSAEFANKVRLLALEKGLILLTCGVHGNVIRFLAPITIQDEVFAEALDTIEASILEARG
**Q.** With B10 as the molecule, how does the “Adipaldehyde 10 mM U/mg” value [1] read?
**A.** 0.051 ± 0.014 U/mg
